Reference: patent US20210292396A1
“And” between values parts separate entries of the source, which are not always exact repeats. Equal values may be shown once.

Assays:
Test in all cases: cell-based or functional assay
[1] = biological target: HIV Env of isolate 0260.v5.c36 (HIV)
[2] = biological target: HIV Env of isolate 1006_11_C3_1601 (HIV)
[3] = biological target: HIV Env of isolate 1056_10_TA11_1826 (HIV)
[4] = biological target: HIV Env of isolate 191084_B7-19 (HIV)
[5] = biological target: HIV Env of isolate 235-47 (HIV)
[6] = biological target: HIV Env of isolate 249M_B10 (HIV)
[7] = biological target: HIV Env of isolate 3103.v3.c10 (HIV)
[8] = biological target: HIV Env of isolate 62357_14_D3_4589 (HIV)
[9] = biological target: HIV Env of isolate 6240_08_TA5_4622 (HIV)
[10] = biological target: HIV Env of isolate 6540.v4.c1 (HIV)
[11] = biological target: HIV Env of isolate 6811.v7.c18 (HIV)
[12] = biological target: HIV Env of isolate 6952.v1.c20 (HIV)
[13] = biological target: HIV Env of isolate 928-28 (HIV)
[14] = biological target: HIV Env of isolate CNE17 (HIV)
[15] = biological target: HIV Env of isolate Ce1176_A3 (HIV)
[16] = biological target: HIV Env of isolate Ce2060_G9 (HIV)
[17] = biological target: HIV Env of isolate Ce704809221_1B3 (HIV)
[18] = biological target: HIV Env of isolate Du172.17 (HIV)
[19] = biological target: HIV Env of isolate HIV-16055-2.3 (HIV)
[20] = biological target: HIV Env of isolate HIV-16845-2.22 (HIV)
[21] = biological target: HIV Env of isolate P0402_C2_11 (HIV)
[22] = biological target: HIV Env of isolate P1981_C5_3 (HIV)
[23] = biological target: HIV Env of isolate Q23.17 (HIV)
[24] = biological target: HIV Env of isolate RHPA4259.7 (HIV)
[25] = biological target: HIV Env of isolate SC05_8C11_2344 (HIV)
[26] = biological target: HIV Env of isolate T211-9 (HIV)
[27] = biological target: HIV Env of isolate T278-50 (HIV)
[28] = biological target: HIV Env of isolate X1193_c1 (HIV)
[29] = biological target: HIV Env of isolate X1254_c3 (HIV)
[30] = biological target: HIV Env of isolate X2088_c9 (HIV)
[31] = biological target: HIV Env of isolate ZM233M.PB6 (HIV)
[32] = biological target: HIV Env of isolate ZM249M.PL1 (HIV)

B1: ePGT121.15.H2.L1 (antibody, V domains shown)
VH: QMQLQESGPGLVKPGETLSLTCSVSGASISSSYWSWLRETPGKGLEWIGYTHHSGDTNYAPSLKSRVHLGLHPSKNQVSLSLTSVTAADTAVYYCARTLHGRRIYGVVAFNEWFTYFYWEVWGKGTQVTVSS
VL: SDISVAPGETVRISCGGESIGSRAVQWYQHRAGQAPKLIIYNNQDRPPGIPERFSGSPDIDFGTTATLTITNVEAGDEATYYCHIWDSRRPTNWVFGGGTTLTVL
B1 gave a neutralization (Table 6 value) [1] of 0.00199, a neutralization (Table 6 value) [2] of 0.00175 and a neutralization (Table 6 value) [3] of 0.000864. The neutralization (Table 6 value) [4] was 0.00196, the neutralization (Table 6 value) [5] was 0.00466 and the neutralization (Table 6 value) [6] was 0.00271. The neutralization (Table 6 value) [7] was 0.00436, the neutralization (Table 6 value) [8] was 0.0109 and the neutralization (Table 6 value) [9] was 0.004. It also gave a neutralization (Table 6 value) [10] of 0.652, a neutralization (Table 6 value) [11] of 0.00194 and a neutralization (Table 6 value) [12] of 0.000842. It also gave a neutralization (Table 6 value) [13] of 0.0488, a neutralization (Table 6 value) [14] of 0.00577 and a neutralization (Table 6 value) [15] of 0.00206. For the same binder, the neutralization (Table 6 value) [16] was 0.0132, the neutralization (Table 6 value) [17] was 0.00143 and the neutralization (Table 6 value) [18] was 0.000836. For the same binder, the neutralization (Table 6 value) [19] was 0.698, the neutralization (Table 6 value) [20] was 0.0222 and the neutralization (Table 6 value) [21] was 0.00193. The neutralization (Table 6 value) [22] was 0.000449, the neutralization (Table 6 value) [23] was 0.00106 and the neutralization (Table 6 value) [24] was 0.00156. For the same binder, the neutralization (Table 6 value) [25] was 0.00664, the neutralization (Table 6 value) [26] was 0.00508 and the neutralization (Table 6 value) [27] was 0.0127. It also gave a neutralization (Table 6 value) [28] of 0.000174, a neutralization (Table 6 value) [29] of 0.00235 and a neutralization (Table 6 value) [30] of 0.000985. The neutralization (Table 6 value) [31] was 0.0048 and 0.00672 and the neutralization (Table 6 value) [32] was 0.00837.
